In US20120231006A1 (Amgen, published 2012):
Where a chain is given by its changes, count along the chain named. Each block holds one binder with its values, some of them ahead of it.

How the values were obtained:
[1] = target: T1, hOrai1-mOrai1 ECL2 chimeric protein (human/mouse chimera, UniProt Q96D31 1-301); experiment: FACS, 293EBNA; parameters: concentration or dose not given beside the values
T1 construct: human Orai1 with mouse ECL2; also called Ch
Excerpt: (§1) FIG. 16A-D illustrates the results of FACS analysis showing binding to the indicated mOrai1-hOrai1 ECL2 chimeric mutants expressed on the surface of HEK-293-EBNA cells. Transfected cells were stained first with recombinant monoclonal antibodies then counter-stained with a secondary phycoerythrin-labeled goat (“Gt”) anti-human (“Hu”) IgG F(ab′)₂ antibody fragment and visualized using FACS. In FIG. 16B and FIG. 16D, The values of Relative Fluorescence Intensity as Percent of Control (RFI-POC) are calculated from the relative fluorescence intensity geometric mean (Geo Mean). The geometric mean is an average calculated by multiplying a series of numbers and taking the nth root where n is the number of numbers in the series. It is a statistical average of a set of transformed numbers often used to represent a central tendency in a highly variable data set that minimizes the effects of extreme values.
(§2) Table 11A and Table 11B feature a schematic representation of the POC data from FIG. 16B and FIG. 16D, respectively, where the binding results are recorded as (+++) denoting binding POC from 40% to 100%, (++) for POC of 5% to less than 40%, (+) for POC from 1% to less than 5% and (−) as lack of binding with POC less than 1%.

[2] = target: T2, mOrai1-hOrai1 ECL2 (…) protein (human/mouse chimera, UniProt Q8BWG9 1-304 (mouse entry)); experiment: FACS, 293EBNA; parameters: concentration or dose not given beside the values
T2 construct: also called Ch
Excerpt: as §1, §2
T2 sequence (Q8BWG9 other isoform, or with tags, fused parts or gaps): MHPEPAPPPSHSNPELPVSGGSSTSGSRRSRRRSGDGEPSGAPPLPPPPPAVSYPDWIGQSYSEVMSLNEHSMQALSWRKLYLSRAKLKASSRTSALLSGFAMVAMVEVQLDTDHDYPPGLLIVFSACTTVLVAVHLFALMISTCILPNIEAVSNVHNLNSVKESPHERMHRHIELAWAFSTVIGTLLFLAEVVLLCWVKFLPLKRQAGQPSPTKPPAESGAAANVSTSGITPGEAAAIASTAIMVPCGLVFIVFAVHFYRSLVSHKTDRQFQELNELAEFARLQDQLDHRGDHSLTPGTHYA

[3] = target: T3, mOrai1-hOrai1 ECL2 (SPTKPPAE) protein (human/mouse chimera, UniProt Q8BWG9 1-304 (mouse entry)); experiment: FACS, 293EBNA; parameters: concentration or dose not given beside the values
T3 construct: also called Ch
T3 sequence (Q8BWG9 other isoform, or with tags, fused parts or gaps): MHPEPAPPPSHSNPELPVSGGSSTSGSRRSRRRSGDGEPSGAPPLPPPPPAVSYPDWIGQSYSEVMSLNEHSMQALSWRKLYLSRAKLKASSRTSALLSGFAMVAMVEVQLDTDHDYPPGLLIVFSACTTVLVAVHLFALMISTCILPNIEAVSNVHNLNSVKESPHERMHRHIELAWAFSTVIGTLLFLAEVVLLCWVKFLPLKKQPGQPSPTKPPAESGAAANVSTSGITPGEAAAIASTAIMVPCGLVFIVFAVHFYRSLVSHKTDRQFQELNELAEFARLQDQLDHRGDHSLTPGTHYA
Excerpt: as §1, §2

[4] = target: T4, mOrai1-hOrai1 ECL2 (KPPAE) protein (human/mouse chimera, UniProt Q8BWG9 1-304 (mouse entry)); experiment: FACS, 293EBNA; parameters: concentration or dose not given beside the values
T4 construct: also called Ch
T4 sequence (Q8BWG9 other isoform, or with tags, fused parts or gaps): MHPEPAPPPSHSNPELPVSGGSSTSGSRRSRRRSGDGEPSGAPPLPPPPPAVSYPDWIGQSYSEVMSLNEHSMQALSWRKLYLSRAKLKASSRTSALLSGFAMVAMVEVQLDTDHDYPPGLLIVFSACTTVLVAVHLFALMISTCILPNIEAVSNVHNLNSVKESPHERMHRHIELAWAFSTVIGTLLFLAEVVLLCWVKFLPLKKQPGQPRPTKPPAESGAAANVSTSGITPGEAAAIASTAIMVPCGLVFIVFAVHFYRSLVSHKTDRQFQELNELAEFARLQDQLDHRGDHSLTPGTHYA
Excerpt: as §1, §2

[5] = target: T5, mOrai1-hOrai1 ECL2 (…) protein (human/mouse chimera, UniProt Q8BWG9 1-304 (mouse entry)); experiment: FACS, 293EBNA; parameters: concentration or dose not given beside the values; remark: listed apart in the source
T5 construct: also called Ch
Excerpt: as §1, §2
T5 sequence (Q8BWG9 other isoform, or with tags, fused parts or gaps): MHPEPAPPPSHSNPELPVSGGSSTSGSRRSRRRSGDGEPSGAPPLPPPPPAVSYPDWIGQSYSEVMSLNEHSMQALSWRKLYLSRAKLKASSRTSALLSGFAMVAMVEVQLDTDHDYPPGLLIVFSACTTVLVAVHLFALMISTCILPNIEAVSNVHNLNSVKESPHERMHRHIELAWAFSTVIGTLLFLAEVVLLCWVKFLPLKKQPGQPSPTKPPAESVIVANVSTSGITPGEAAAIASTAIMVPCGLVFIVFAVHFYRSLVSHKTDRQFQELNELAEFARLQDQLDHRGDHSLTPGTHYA

[6] = target: T6, mOrai1-hOrai1 ECL2 (…) protein (human/mouse chimera, UniProt Q8BWG9 1-304 (mouse entry)); experiment: FACS, 293EBNA; parameters: concentration or dose not given beside the values; remark: listed apart in the source
T6 construct: also called Ch
Excerpt: as §1, §2
T6 sequence (Q8BWG9 other isoform, or with tags, fused parts or gaps): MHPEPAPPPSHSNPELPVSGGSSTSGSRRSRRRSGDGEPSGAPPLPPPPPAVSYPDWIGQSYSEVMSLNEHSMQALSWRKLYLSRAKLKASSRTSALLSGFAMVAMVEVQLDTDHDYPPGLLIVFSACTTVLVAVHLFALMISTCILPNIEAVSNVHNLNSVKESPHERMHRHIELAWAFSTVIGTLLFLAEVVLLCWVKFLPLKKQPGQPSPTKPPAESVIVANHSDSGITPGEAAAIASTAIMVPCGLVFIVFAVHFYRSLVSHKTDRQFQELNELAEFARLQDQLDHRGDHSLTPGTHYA

[7] = target: T7, mOrai1-hOrai1 ECL2 (…) protein (human/mouse chimera, UniProt Q8BWG9 1-304 (mouse entry)); experiment: FACS, 293EBNA; parameters: concentration or dose not given beside the values; remark: listed apart in the source
T7 construct: also called Ch
Excerpt: as §1, §2
T7 sequence (Q8BWG9 other isoform, or with tags, fused parts or gaps): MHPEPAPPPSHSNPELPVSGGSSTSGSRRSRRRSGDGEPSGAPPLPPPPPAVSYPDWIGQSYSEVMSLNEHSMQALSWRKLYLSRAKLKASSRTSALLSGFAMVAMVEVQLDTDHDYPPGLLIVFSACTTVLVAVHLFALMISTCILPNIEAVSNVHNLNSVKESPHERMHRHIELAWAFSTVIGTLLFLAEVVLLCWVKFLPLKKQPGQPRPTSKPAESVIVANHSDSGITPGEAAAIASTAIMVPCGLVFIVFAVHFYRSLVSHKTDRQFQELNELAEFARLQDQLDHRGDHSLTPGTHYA

[8] = target: T8, mOrai1-hOrai1 ECL2 (AESVIV) protein (human/mouse chimera, UniProt Q8BWG9 1-304 (mouse entry)); experiment: FACS, 293EBNA; parameters: concentration or dose not given beside the values
T8 construct: also called Ch
T8 sequence (Q8BWG9 other isoform, or with tags, fused parts or gaps): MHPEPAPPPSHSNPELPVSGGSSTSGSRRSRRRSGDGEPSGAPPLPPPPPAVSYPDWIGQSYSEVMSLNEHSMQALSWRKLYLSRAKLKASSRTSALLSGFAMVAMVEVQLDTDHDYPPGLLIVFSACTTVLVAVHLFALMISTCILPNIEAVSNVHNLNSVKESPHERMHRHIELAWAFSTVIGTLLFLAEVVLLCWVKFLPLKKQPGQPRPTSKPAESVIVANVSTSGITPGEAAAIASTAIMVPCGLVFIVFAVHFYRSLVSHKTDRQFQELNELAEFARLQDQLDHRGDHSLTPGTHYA
Excerpt: as §1, §2

[9] = target: T2, mOrai1-hOrai1 ECL2 (…) protein; experiment: flow cytometry on HEK-293 cells transfected with the chimera (loss of binding experiment)
[10] = target: T3, mOrai1-hOrai1 ECL2 (SPTKPPAE) protein; experiment: as above
[11] = target: T4, mOrai1-hOrai1 ECL2 (KPPAE) protein; experiment: as above
[12] = target: T5, mOrai1-hOrai1 ECL2 (…) protein; experiment: as above; remark: listed apart in the source
[13] = target: T6, mOrai1-hOrai1 ECL2 (…) protein; experiment: as above; remark: listed apart in the source
[14] = target: T7, mOrai1-hOrai1 ECL2 (…) protein; experiment: as above; remark: listed apart in the source
[15] = target: T8, mOrai1-hOrai1 ECL2 (AESVIV) protein; experiment: as above
[16] = target: T1, hOrai1-mOrai1 ECL2 chimeric protein; experiment: FACS, 293EBNA; parameters: concentration or dose not given beside the values; remark: listed apart in the source
Excerpt: (§3) FIG. 17A-D illustrates the results of FACS analysis showing binding to the indicated mOrai1-hOrai1 ECL2 chimeric mutants expressed on the surface of HEK-293-EBNA cells. Transfected cells were stained first with recombinant monoclonal antibodies then counter-stained with a secondary phycoerythrin-labeled goat (“Gt”) anti-human (“Hu”) IgG F(ab′)₂ antibody fragment and visualized using FACS.
(§4) Representative results of FACS analysis of binding to the mutant hOrai1-mOrai1 ECL2 chimera described above by exemplary anti-hOrai1 antibodies of the present invention are shown in FIG. 17A-D, Table 10A and Table 10B below. Table 10A (Campaign 1) and Table 10B (Campaign 2) show the gain in binding ability of exemplary monoclonal antibodies to hOrai 1-mOrai 1 ECL2 chimera mutants as determined by FACS.

[17] = target: T9, hOrai1-mOrai1 ECL2 (…) protein (human/mouse chimera, UniProt Q96D31 1-301); experiment: FACS, 293EBNA; parameters: concentration or dose not given beside the values
T9 construct: also called Ch
T9 sequence (Q96D31 other isoform, or with tags, fused parts or gaps): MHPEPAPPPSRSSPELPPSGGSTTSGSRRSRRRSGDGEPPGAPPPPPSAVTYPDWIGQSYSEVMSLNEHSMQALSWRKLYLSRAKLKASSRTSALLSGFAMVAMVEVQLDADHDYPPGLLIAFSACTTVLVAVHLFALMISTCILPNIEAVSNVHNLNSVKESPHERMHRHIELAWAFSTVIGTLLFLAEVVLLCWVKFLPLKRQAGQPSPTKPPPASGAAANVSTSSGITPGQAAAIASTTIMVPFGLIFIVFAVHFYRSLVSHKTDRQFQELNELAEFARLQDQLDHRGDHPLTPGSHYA
Excerpt: as §3, §4

[18] = target: T10, hOrai1-mOrai1 ECL2 (PASGAA) protein (human/mouse chimera, UniProt Q96D31 1-301); experiment: FACS, 293EBNA; parameters: concentration or dose not given beside the values
T10 construct: also called Ch
T10 sequence (Q96D31 other isoform, or with tags, fused parts or gaps): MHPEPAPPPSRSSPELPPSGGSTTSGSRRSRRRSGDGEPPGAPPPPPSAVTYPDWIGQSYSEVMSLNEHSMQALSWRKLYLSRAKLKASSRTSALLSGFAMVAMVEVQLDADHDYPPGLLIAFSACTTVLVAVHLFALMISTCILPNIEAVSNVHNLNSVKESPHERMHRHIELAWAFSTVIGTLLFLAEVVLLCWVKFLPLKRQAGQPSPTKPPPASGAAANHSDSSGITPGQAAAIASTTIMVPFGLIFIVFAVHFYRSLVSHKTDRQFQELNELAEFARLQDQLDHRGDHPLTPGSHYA
Excerpt: as §3, §4

[19] = target: T11, hOrai1-mOrai1 ECL2 (AANVST) protein (human/mouse chimera, UniProt Q96D31 1-301); experiment: FACS, 293EBNA; parameters: concentration or dose not given beside the values
T11 construct: also called Ch
T11 sequence (Q96D31 other isoform, or with tags, fused parts or gaps): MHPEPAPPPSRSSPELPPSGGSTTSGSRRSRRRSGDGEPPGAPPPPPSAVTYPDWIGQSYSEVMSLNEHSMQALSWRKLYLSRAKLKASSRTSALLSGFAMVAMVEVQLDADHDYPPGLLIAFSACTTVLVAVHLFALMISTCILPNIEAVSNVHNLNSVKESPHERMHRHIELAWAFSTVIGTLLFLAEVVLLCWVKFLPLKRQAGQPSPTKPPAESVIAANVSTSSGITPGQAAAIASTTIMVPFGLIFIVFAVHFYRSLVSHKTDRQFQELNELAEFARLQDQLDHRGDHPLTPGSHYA
Excerpt: as §3, §4

[20] = target: T12, hOrai1-mOrai1 ECL2 (GAA) protein (human/mouse chimera, UniProt Q96D31 1-301); experiment: FACS, 293EBNA; parameters: concentration or dose not given beside the values
T12 construct: also called Ch
T12 sequence (Q96D31 other isoform, or with tags, fused parts or gaps): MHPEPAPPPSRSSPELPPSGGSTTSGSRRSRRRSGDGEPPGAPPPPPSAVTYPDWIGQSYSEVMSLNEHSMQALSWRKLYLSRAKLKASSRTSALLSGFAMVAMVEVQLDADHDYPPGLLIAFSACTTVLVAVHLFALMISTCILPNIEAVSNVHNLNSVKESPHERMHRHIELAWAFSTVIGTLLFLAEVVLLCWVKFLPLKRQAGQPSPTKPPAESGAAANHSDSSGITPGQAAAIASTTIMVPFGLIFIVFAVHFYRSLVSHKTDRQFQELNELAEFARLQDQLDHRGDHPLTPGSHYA
Excerpt: as §3, §4

[21] = target: T13, hOrai1-mOrai1 ECL2 (VST) protein (human/mouse chimera, UniProt Q96D31 1-301); experiment: FACS, 293EBNA; parameters: concentration or dose not given beside the values
T13 construct: also called Ch
T13 sequence (Q96D31 other isoform, or with tags, fused parts or gaps): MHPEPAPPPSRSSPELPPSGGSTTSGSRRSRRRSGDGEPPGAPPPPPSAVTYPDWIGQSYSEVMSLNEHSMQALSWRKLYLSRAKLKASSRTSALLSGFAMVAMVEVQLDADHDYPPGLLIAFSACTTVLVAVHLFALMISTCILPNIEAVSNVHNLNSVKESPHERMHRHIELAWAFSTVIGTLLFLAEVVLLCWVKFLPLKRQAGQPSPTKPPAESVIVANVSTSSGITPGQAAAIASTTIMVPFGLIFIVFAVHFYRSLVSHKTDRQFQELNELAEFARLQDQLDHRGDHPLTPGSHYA
Excerpt: as §3, §4

human Orai1 = human Orai1 (human, UniProt Q96D31 1-301); experiment: cell-based or functional assay
Sequence of human Orai1 (Q96D31 whole entry): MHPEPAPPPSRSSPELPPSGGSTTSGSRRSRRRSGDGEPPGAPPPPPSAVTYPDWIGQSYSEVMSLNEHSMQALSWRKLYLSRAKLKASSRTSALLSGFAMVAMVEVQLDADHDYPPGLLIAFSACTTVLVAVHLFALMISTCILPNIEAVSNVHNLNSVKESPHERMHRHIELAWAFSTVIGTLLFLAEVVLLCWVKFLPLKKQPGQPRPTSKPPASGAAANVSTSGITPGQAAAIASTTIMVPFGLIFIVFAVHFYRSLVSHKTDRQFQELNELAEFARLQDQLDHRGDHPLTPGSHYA

T1 sequence (Q96D31 other isoform, or with tags, fused parts or gaps mutant): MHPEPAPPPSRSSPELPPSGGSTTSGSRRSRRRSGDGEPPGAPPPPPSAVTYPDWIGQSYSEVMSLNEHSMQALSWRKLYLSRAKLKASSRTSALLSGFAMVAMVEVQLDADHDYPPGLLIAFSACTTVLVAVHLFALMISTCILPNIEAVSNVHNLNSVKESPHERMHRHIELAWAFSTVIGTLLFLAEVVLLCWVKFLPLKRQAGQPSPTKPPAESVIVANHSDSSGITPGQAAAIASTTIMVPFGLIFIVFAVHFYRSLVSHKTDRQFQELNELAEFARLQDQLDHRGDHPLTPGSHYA

B2: mAb 2D2.1 (antibody, human IgG2, lambda, V domains shown)
VH: QVQLQQWGAGLLKPSETLSLTCAVYGGSFSGYYWSWIRQPPGKGLEWIGEIDHSGRINYNPALKSRLTISVDTSKNQFSLKLSSVTAADTAVYYCARAGSGGYEDWFDPWGQGTLVTVSS
VL: QSVLTQPPSVSGAPGQRVTISCTGSSSNIGAGYNVHWYQQFPRTDPKLLIYVYNIRPSGVPDRFSGSRSGTSASLAITGLQTEDEADYYCQSYDSSLSGVVFGGGTKLTVLG
notes: fully human IgG2 lambda, Campaign 1; also called mAb 2D.1
- percent of control (POC) of FACS Geo Mean [16]: < 1%
- percent of control (POC) of FACS Geo Mean [17]: < 1%
- percent of control (POC) of FACS Geo Mean [18]: < 1%
- percent of control (POC) of FACS Geo Mean [19]: < 1%
- percent of control (POC) of FACS Geo Mean [20]: < 1%
- percent of control (POC) of FACS Geo Mean [21]: < 1%
- POC (percent of control, FACS Geo Mean relative to Ch. 1) [1]: < 1%
- POC (percent of control, FACS Geo Mean relative to binding to Ch. 1) [1]: < 1%
- POC (percent of control, FACS Geo Mean relative to Ch. 1) [2]: < 1%
- POC (percent of control, FACS Geo Mean relative to binding to Ch. 1) [2]: < 1%
- POC (percent of control, FACS Geo Mean relative to Ch. 1) [3]: < 1%
- POC (percent of control, FACS Geo Mean relative to binding to Ch. 1) [3]: < 1%
- POC (percent of control, FACS Geo Mean relative to Ch. 1) [4]: < 1%
- POC (percent of control, FACS Geo Mean relative to binding to Ch. 1) [4]: < 1%
- POC (percent of control, FACS Geo Mean relative to Ch. 1) [5]: < 1%
- POC (percent of control, FACS Geo Mean relative to binding to Ch. 1) [5]: < 1%
- POC (percent of control, FACS Geo Mean relative to Ch. 1) [6]: < 1%
- POC (percent of control, FACS Geo Mean relative to binding to Ch. 1) [6]: < 1%
- binding result [9]: no binding
- binding result [10]: no binding
- binding result [11]: no binding
- binding result [12]: no binding
- binding result [13]: no binding

B3: mAb 2B7.1 (antibody, human IgG2, V domains shown)
VH: B2 VH with R56S, I57T
VL: B2 VL with A31T
notes: fully human, Campaign 1
- POC (percent of control, FACS Geo Mean relative to Ch. 1) [1]: < 1%
- POC (percent of control, FACS Geo Mean relative to Ch. 1) [2]: < 1%
- POC (percent of control, FACS Geo Mean relative to Ch. 1) [3]: < 1%
- POC (percent of control, FACS Geo Mean relative to Ch. 1) [4]: < 1%
- POC (percent of control, FACS Geo Mean relative to Ch. 1) [5]: < 1%
- POC (percent of control, FACS Geo Mean relative to Ch. 1) [6]: < 1%
- binding result [9]: no binding
- binding result [10]: no binding
- binding result [11]: no binding
- binding result [12]: no binding
- binding result [13]: no binding

More lines, now with the values ahead:

- POC (percent of control, FACS Geo Mean relative to Ch. 1) [1]: < 1%
- POC (percent of control, FACS Geo Mean relative to Ch. 1) [2]: < 1%
- POC (percent of control, FACS Geo Mean relative to Ch. 1) [3]: < 1%
- POC (percent of control, FACS Geo Mean relative to Ch. 1) [4]: < 1%
- POC (percent of control, FACS Geo Mean relative to Ch. 1) [5]: < 1%
- POC (percent of control, FACS Geo Mean relative to Ch. 1) [6]: < 1%
- POC (percent of control, FACS Geo Mean relative to Ch. 1) [7]: < 1%
- POC (percent of control, FACS Geo Mean relative to Ch. 1) [8]: < 1%
- binding result [9]: no binding
- binding result [10]: no binding
- binding result [11]: no binding
- binding result [12]: no binding
- binding result [13]: no binding
- binding result [14]: no binding
- binding result [15]: no binding
B1: mAb 2B4.1 (antibody, human IgG2, lambda, V domains shown)
VH: QVQLVQSGAEVKKPGASVKVSCKASGYTFTDYYMHWVRQAPGQGLEWMGWINPNSGGTNYVQKFQDRVTMTRDTSITTAYMELTRLRSDDTAVYYCAREEGDYGMDVWGQGTTVTVSS
VL: QSVLTQPPSVSGAPGQRVTISCTGSNSNIGTGYDVHWYQKLPGTAPRLLIYSHFNRPSGVPDRFSGSTSGTSASLAITGLQAEDEADYYCQSYDSSLSGSVFGGGTKLTVLG

- POC (percent of control, FACS Geo Mean relative to Ch. 1) [1]: < 1%
- POC (percent of control, FACS Geo Mean relative to Ch. 1) [2]: < 1%
- POC (percent of control, FACS Geo Mean relative to Ch. 1) [3]: < 1%
- POC (percent of control, FACS Geo Mean relative to Ch. 1) [4]: < 1%
- POC (percent of control, FACS Geo Mean relative to Ch. 1) [5]: < 1%
- POC (percent of control, FACS Geo Mean relative to Ch. 1) [6]: < 1%
- binding result [9]: no binding
- binding result [10]: no binding
- binding result [11]: no binding
- binding result [12]: no binding
- binding result [13]: no binding
B4: mAb 2C1.1 (antibody, human IgG2, lambda, V domains shown)
VH: B2 VH with R56S, I57T
VL: B2 VL
notes: fully human IgG2 lambda, Campaign 1; tested hybridoma-purified and recombinant; also called anti-hOrai1 mAb 2C1.1

- percent of control (POC) of FACS Geo Mean [16]: < 1%
- percent of control (POC) of FACS Geo Mean [17]: < 1%
- percent of control (POC) of FACS Geo Mean [18]: < 1%
- percent of control (POC) of FACS Geo Mean [19]: < 1%
- percent of control (POC) of FACS Geo Mean [20]: < 1%
- percent of control (POC) of FACS Geo Mean [21]: < 1%
- POC (percent of control, FACS Geo Mean relative to binding to Ch. 1) [1]: < 1%
- POC (percent of control, FACS Geo Mean relative to binding to Ch. 1) [2]: < 1%
- POC (percent of control, FACS Geo Mean relative to binding to Ch. 1) [3]: < 1%
- POC (percent of control, FACS Geo Mean relative to binding to Ch. 1) [4]: < 1%
- POC (percent of control, FACS Geo Mean relative to binding to Ch. 1) [5]: < 1%
- POC (percent of control, FACS Geo Mean relative to binding to Ch. 1) [6]: < 1%
- IC50 IFN-γ, whole blood Donor A (human Orai1): 7.4 nM
- IC50 IFN-γ, whole blood Donor B (human Orai1): 10.7 nM
- IC50 IL-2, whole blood Donor A (human Orai1): 2.73 nM
- IC50 IL-2, whole blood Donor B (human Orai1): 4.45 nM
- binding result [9]: no binding
- binding result [10]: no binding
- binding result [11]: no binding
- binding result [12]: no binding
- binding result [13]: no binding
B5: mAb 5B1.1 (antibody, human IgG2, lambda, V domains shown)
VH: QVQLVQSGAEVKKPGASVKVSCKASGYTFTDYYINWVRQAPGQGLEWMGWINPNSGGSSYAQKFQGRVTMTRDTSISTAHMELIRLRSDDTAVYYCARERGGIEDWFDPWGQGTLVTVSS
VL: QSVLTQPPSVSGAPGQRVTISCTGSSSNIGAGYDVHWYQQLPGTAPKLLIYGNSNRPSGVPDRFSGSKSGTSASLAITKFQAEDEAVYYCQSYGSGLSGVVFGGGTKLTVLG
notes: fully human IgG2 lambda, Campaign 2; also called mAb 5Bl1.1
